Experimental data from paper PMC7137328.

Substrate: O=P(O)(O)O[C@H]1[C@H](OP(=O)(O)O)[C@@H](OP(=O)(O)O)[C@H](OP(=O)(O)O)[C@@H](OP(=O)(O)O)[C@H]1OP(=O)(O)O
Test: purified protein
Conditions: 100 mM Tris-HCl pH 7.5, 50 °C, 10 min, 0.125-4.0 mM sodium phytate, printed kcat does not agree with printed Vmax and Mw

B1: r-Aophytase (recombinant Aophytase; G1XN29 protein) (Orbilia oligospora ATCC 24927) (protein)
chain: ADKFSITLPITARTSSVESDSAAVYYPSKSKYSPIFIGNDGSAETGGFHVYELYGKRSDALVKELGAYKTGRSKLVEVVYGEDRDFVVTLSMSDGMFRVFEVDGKNGVRGLKAEKLVRGDFSAMCTWKSKVGEYVYVLGKRWGYRFLVREKKGGRGVEVVQTQEFGIPIEPNSCTVSPEGKVFLAGDSGKVFSFLAVDETAAPKIVEVGELGGGDEVKGLKIYHGKKDTYLLVGLEDGIEVFDIKKLGSSLGKIQFDDEELEVGDFAVHQTSAKGYEDGSIVFAGEDGEGKFFGVSSLTPLFKALGKGKLNTKYDPRDCTDNHARPKKCANLSDCNGYGYCPKDSRDKKATCDCFPGLTGKTCNKITCPSNCTSPSHGTCTGPNICTCIPPFTGENCATLAVPARYETEESGGADGDDPAIWIHPTDKTKSRIITTVKSEVGSGLGVYDLKGKRTGGVSGGEPNNVDVLYGVEFAGRKVDLAVAACRADDTICIYEITPTGDLVTIPGGVQPLPPAVKELEKKFKVYGSCVYHSPKTGAYHIFVNSKSSLYLQFQLSATTDGKLNTTLVRHFYAGNRGQVEGCVVDDENSSLFLGEEPYGIWSYDAEPDQPAVGTLVDNTVVDGGKLHADVEGVTLVYGKTKKEGYIIVSCQGYSEYNIYQRYPPHEFVMSFSIPDNKEKGVDRVTNTDGITAVGANLGKEWPYGMVVVHDDVNEAAGGGVRADATFKIVGLGDILGNKAVKELGLLKGVDENWDPRK
Km: 1015 µM | kcat: 13.57 s⁻¹
